Read-outs that look alike come from different tables or passages of the source. Marks after values point to notes of the source that are not given here.
What was measured:
[1] = Activity of crude culture supernatants from bioreactor; assay type: biochemical; settings: pNP-dodecanoate
[2] = Specific activity of purified enzymes (standard esterase assay); assay type: biochemical
Procedure: In summary, using different techniques for enzyme purification, pure enzyme preparations were obtained and tested for their activity towards a standard esterase substrate, pNP-palmitate. Enzymatic activities of the purified variants are summarized below:
(§1) Esterase activity was determined by monitoring the formation of para-nitrophenol (pNP) at 410 nm from various pNP-esters using a Beckman UV spectrophotometer (model DU 640). Substrates were completely dissolved in 2-propanol (8 mM) and were then added to 50 mM Tris/HCl buffer pH 8.0 to give a final substrate concentration of 0.8 mM. The reaction (1 mL) was started by adding an appropriate amount of enzyme. One enzyme unit (U) was defined as the amount of enzyme that produced 1 μmol of product (pNP) per min; specific activity was expressed as U/mg protein. A molar extinction coefficient of 15 mM^−1 cm^−1 was used for the calculation.

[3] = Circular dichroism spectroscopy, melting temperature and refolding; assay type: physicochemical
Procedure: CD spectra were recorded using a Jasco™ J-815 spectrometer operating with the Spectra™ Manager software. Temperature was controlled using a Jasco™ PFD-452S peltier unit. Previously purified protein solutions were adjusted to 0.15 mg/mL (if quantities allowed for) and CD spectra were recorded between 190 and 250 nm using a Quartz cuvette (ID=0.1 cm). Blanks containing buffer only were prepared and used as baseline. Temperature dependent protein unfolding was monitored at 222 nm with thermo profiles ranging from 20 up to 90° C. (2° C. min-1). Samples were kept for 5 min at the respective maximum temperature and protein refolding was monitored using the same conditions as above reversing the thermo profiles. Thermodynamic parameters (Tm, ΔH, ΔS, ΔG) for the folding/unfolding process, if applicable, were calculated using the Spectra™ Manager software.

[4] = Enzyme substrate profiles, esterase assays; assay type: biochemical; settings: highest activity towards a specific substrate set to 100%
Procedure: as §1

[5] = Enzymatic activity in the presence of organic solvents; assay type: biochemical; settings: buffer only = 100%
Procedure: Enzyme activity in various organic solvents was studied over a concentration range of 1-30% at room temperature. pNP-palmitate was completely dissolved in 2-propanol (8 mM) and then added to 50 mM Tris/HCl buffer pH 8.0 containing up to 30% organic solvent to give a final substrate concentration of 0.8 mM. The reaction was started by addition of enzyme and the formation of pNP was assayed as described above in Example 20.1.

pH dependence of enzymes = assay type: biochemical; settings: for Relative activity (%): highest activity = 100%
Procedure: The influence of different pH values (from 5.5 to 11) on the activities of the purified enzymes was examined in three buffer systems (sodium acetate, sodium phosphate, and Tris-HCl) at room temperature using pNP-palmitate (see esterase assay in Example 20.1) as a substrate at a final substrate concentration of 0.8 mM.

[6] = Stability in the presence of hydrogen peroxide; assay type: physicochemical
Procedure: as §1
Purified cutinases were incubated at room temperature in the presence of 0, 30, 100, 300, 1500, and 3000 ppm of hydrogen peroxide. Residual enzyme activity was assayed (see Example 20.1) after 1, 2, 3, and 7 days of incubation.

[7] = assay type: biochemical, Petromyces albertensis; settings: for Residual ochratoxin A (%): 5 ppm Ochratoxin A, 37° C., relative to incubation without enzyme
Procedure: The enzymes purified in Example 18 were tested for their ability to degrade the mycotoxin Ochratoxin A. In general, the mycotoxin was incubated with different concentrations of the enzyme, and the remaining mycotoxin concentration, as well the respective degradation products, were monitored by LC-MS over time (where possible/applicable).
Reactions were performed in 1 mL volumes in glass HPLC vials comprising the mycotoxin to be analyzed and the enzyme to be tested. For Ochratoxin A (Petromyces albertensis, 01877 Sigma), 50 μL of a 100 ppm stock solution in methanol (final concentration of 5 ppm) was added to 910 μL of distilled water and 40 μL of the enzyme to be tested. In control reactions, the volume of enzyme was substituted with distilled water. The reactions were incubated in an Eppendorf thermomixer at 37° C. with shaking at 750 rpm. 100 μL samples were withdrawn at 1, 4 and 24 h for chromatographic analysis.
Mycotoxin analysis was carried out using a Shimadzu LCMS-2020 equipped with a UV/vis detector. Chromatographic separation of 10 μL injected sample was carried out at 30° C. on a Kinetex 2.6 μm XB-C18 column 100 Å (50×2.1 mm) using a binary gradient. For Ochratoxin A, eluent A consisted of water and eluent B consisted of acetonitrile and the UV detection wavelength was 360 nm.
The five enzymes tested were screened for their ability to degrade 5 ppm (5,000 ppb) Ochratoxin A at 37° C.

B1: KrCUT: mature Kineococcus radiotolerans cutinase, amino acids 34-294 of SEQ ID NO: 1; SEQ ID NO: 6 (protein)
chain: ATCSDVDVVFARGTGETPGLGVVGGPFVRSLTGELSDRTVTSHAVDYAASSSQASAGPGATAMSAHVREVAAACPSTRFVLGGYSQGATVTDIALGIRTGTTTGTPVPAELAGRVAAVVVFGNPLGLSGRTIATASSTYGPKSKDYCNSSDSVCGSAPKTGTGGHLSYASNGSTTDGARFAAGLVRAAGTPTTPTPTPTPTPVPTTCVRDSTRDHVAADRAVSLYGRAYARGSRDSLGATSSYNVVSLQQVEGGWRLVTAC
modifications: Kineococcus radiotolerans; (1)..(261) KrCUT (lacking residues 1-33 of ssKrCUT)
activity of crude culture supernatant [1]: 1.6 U/mL | Enzymatic activity of the purified variant ([2]; pNP-palmitate): 197 ± 3 U/mg | Spec. Act. (U/mg) ([2]; towards pNP-palmitate (standard assay)): 197 ± 3 U/mg | refolding ([3]; CD at 222 nm): refolding to some extent | midpoint transition temperature of refolding ([3]; CD at 222 nm, high to low temperature): 42.7 °C | melting temperature (Tm) ([3]; CD at 222 nm, unfolding): 50.7 °C | Tm (° C.) ([3]; estimated using CD-spectroscopy): 51 ± 1 °C | Relative activity, pNP-acetate (C2) [4]: 2% | Relative activity, pNP-butyrate (C4) [4]: 26 ± 2% | Relative activity, pNP-caprylate (C8) [4]: 25 ± 3% | Relative activity, pNP-decanoate (C10) [4]: 25 ± 3% | Relative activity, pNP-myristate (C14) [4]: 100* % | Relative activity, pNP-palmitate (C16) [4]: 98 ± 6% | Relative enzymatic activity (%) ([5]; 2-Propanol 5% (v/v)): 55 ± 11% | Relative enzymatic activity (%) ([5]; 2-Propanol 10% (v/v)): 8% | Relative enzymatic activity (%) ([5]; Acetone 1% (v/v)): 71 ± 2% | Relative enzymatic activity (%) ([5]; Acetone 5% (v/v)): 47 ± 7% | Relative enzymatic activity (%) ([5]; Dimethyl sulfoxide (DMSO) 10% (v/v)): 106 ± 4% | Relative enzymatic activity (%) ([5]; Dimethyl sulfoxide (DMSO) 20% (v/v)): 14 ± 2% | Relative enzymatic activity (%) ([5]; Dimethyl sulfoxide (DMSO) 30% (v/v)): 2% | Relative enzymatic activity (%) ([5]; Dimethylformamide (DMF) 5% (v/v)): 55 ± 11% | Relative enzymatic activity (%) ([5]; Methanol 10% (v/v)): 91 ± 12% | Relative enzymatic activity (%) ([5]; Methanol 20% (v/v)): 8% | pH opt. (pH dependence of enzymes): 8.5 | Relative activity (%) (pH dependence of enzymes; pH 6.5, sodium phosphate buffer): 22 ± 1% | Relative activity (%) (pH dependence of enzymes; pH 7.0, sodium phosphate buffer): 53 ± 2% | Relative activity (%) (pH dependence of enzymes; pH 7.5, sodium phosphate buffer): 72 ± 4% | Relative activity (%) (pH dependence of enzymes; pH 8.0, Tris/HCl): 87 ± 6% | Relative activity (%) (pH dependence of enzymes; pH 8.5, Tris/HCl): 100* % | Relative activity (%) (pH dependence of enzymes; pH 9.0, Tris/HCl): 96 ± 4% | Relative activity (%) (pH dependence of enzymes; pH 9.5, Tris/HCl): 76 ± 7% | Relative activity (%) (pH dependence of enzymes; pH 10, Tris/HCl): 37 ± 5% | Relative activity (%) after exposure to hydrogen peroxide ([6]; H2O2 30 ppm, Day 0): 100 ± 9% | Relative activity (%) after exposure to hydrogen peroxide ([6]; H2O2 30 ppm, Day 1): 90 ± 6% | Relative activity (%) after exposure to hydrogen peroxide ([6]; H2O2 30 ppm, Day 2): 75 ± 3% | Relative activity (%) after exposure to hydrogen peroxide ([6]; H2O2 30 ppm, Day 3): 75 ± 8% | Relative activity (%) after exposure to hydrogen peroxide ([6]; H2O2 30 ppm, Day 7): 76 ± 2% | Relative activity (%) after exposure to hydrogen peroxide ([6]; H2O2 100 ppm, Day 0): 104 ± 6% | Relative activity (%) after exposure to hydrogen peroxide ([6]; H2O2 100 ppm, Day 1): 91 ± 6% | Relative activity (%) after exposure to hydrogen peroxide ([6]; H2O2 100 ppm, Day 2): 88 ± 6% | Relative activity (%) after exposure to hydrogen peroxide ([6]; H2O2 100 ppm, Day 3): 76 ± 2% | Relative activity (%) after exposure to hydrogen peroxide ([6]; H2O2 100 ppm, Day 7): 66 ± 2% | Relative activity (%) after exposure to hydrogen peroxide ([6]; H2O2 300 ppm, Day 0): 102 ± 4% | Relative activity (%) after exposure to hydrogen peroxide ([6]; H2O2 300 ppm, Day 1): 87 ± 2% | Relative activity (%) after exposure to hydrogen peroxide ([6]; H2O2 300 ppm, Day 2): 74 ± 1% | Relative activity (%) after exposure to hydrogen peroxide ([6]; H2O2 300 ppm, Day 3): 63 ± 2% | Relative activity (%) after exposure to hydrogen peroxide ([6]; H2O2 300 ppm, Day 7): 49 ± 4% | Relative activity (%) after exposure to hydrogen peroxide ([6]; H2O2 1,500 ppm, Day 0): 102 ± 10% | Relative activity (%) after exposure to hydrogen peroxide ([6]; H2O2 1,500 ppm, Day 1): 80 ± 4% | Relative activity (%) after exposure to hydrogen peroxide ([6]; H2O2 1,500 ppm, Day 2): 67 ± 4% | Relative activity (%) after exposure to hydrogen peroxide ([6]; H2O2 1,500 ppm, Day 3): 44 ± 2% | Relative activity (%) after exposure to hydrogen peroxide ([6]; H2O2 1,500 ppm, Day 7): 11 ± 1% | Relative activity (%) after exposure to hydrogen peroxide ([6]; H2O2 3,000 ppm, Day 0): 98 ± 9% | Relative activity (%) after exposure to hydrogen peroxide ([6]; H2O2 3,000 ppm, Day 1): 60 ± 2% | Relative activity (%) after exposure to hydrogen peroxide ([6]; H2O2 3,000 ppm, Day 2): 33 ± 1% | Relative activity (%) after exposure to hydrogen peroxide ([6]; H2O2 3,000 ppm, Day 3): 20 ± 4% | Relative activity (%) after exposure to hydrogen peroxide ([6]; H2O2 3,000 ppm, Day 7): no activity was detected | Residual ochratoxin A (%) ([7]; 1 h): 63% | Residual ochratoxin A (%) ([7]; 4 h): 17% | Residual ochratoxin A (%) ([7]; 24 h): 7% | Ochratoxin A Degradation per U and h ([7]; per 1 U of enzyme (pNP standard test) and hour at 37° C.): 0.02 µmol

— patent US10227575B2, “Multi-domain enzymes having cutinase activity, compositions comprising same and uses thereof” (OZYMES, priority 2015, dated 2019)
